Assay results: EP3636665A1 (dated 2020)

Assays:
[1] = target: T1, MAGE-A3 peptide on HLA-DPB1*04:01 (human); test: cytokine release
T1 peptide: KKLLTQHFVQENY

[2] = target: T2, MAGE-A1 and a second family member (printed 'MRGE-A1/R4') peptide on HLA-DPB1*04:01 (human); test: cytokine release
T2 peptide: QDLVQEKYLEY

- binding result [1]: no recognition
- binding result [2]: no recognition
B1: 6F9 TCR (TCR, V domains shown)
Valpha: AQTVTQSQPEMSVQEAETVTLSCTYDTSESDYYLFWYKQPPSRQMILVIRQEAYKQQNATENRFSVNFQKAAKSFSLKISDSQLGDAAMYFCALRSSGTYKYIFGTGTRLKVLA
Vbeta: GAGVSQSPSNKVTEKGKDVELRCDPISGHTALYWYRQSLGQGLEFLIYFQGNSAPDKSGLPSDRFSAERTGGSVSTLTIQRTQQEDSAVYLCASIRTGPFFSGNTIYFGEGSWLTVV
